Laboratory results as given in patent publication US20210071247.

Columns and labels:
Volcano2G DNA polymerase = Volcano2G DNA polymerase (UniProt P19821); settings: LNA at GATA and GAAC of 3' 12-mer GATAgcttGAAC of SEQ 2 (mC LNA), PS linkages in the 12-mer; iSp18 spacer and 3' amino in DCP1; first strand read-through efficiency vs DTT1, ddPCR, 42 C
[1] = target: PrimeScript reverse transcriptase (UniProt P03355); settings: LNA at GATA and GAAC of 3' 12-mer GATAgcttGAAC of SEQ 2 (mC LNA), PS linkages in the 12-mer; iSp18 spacer and 3' amino in DCP1; read-through efficiency, 42 C
[2] = tested on: AMV reverse transcriptase (Avian myeloblastosis virus); settings: LNA at GATA and GAAC of 3' 12-mer GATAgcttGAAC of SEQ 2 (mC LNA), PS linkages in the 12-mer; iSp18 spacer and 3' amino in DCP1; read-through efficiency, 42 C; lost above 52.5 C

Chain of Volcano2G DNA polymerase (P19821 whole entry): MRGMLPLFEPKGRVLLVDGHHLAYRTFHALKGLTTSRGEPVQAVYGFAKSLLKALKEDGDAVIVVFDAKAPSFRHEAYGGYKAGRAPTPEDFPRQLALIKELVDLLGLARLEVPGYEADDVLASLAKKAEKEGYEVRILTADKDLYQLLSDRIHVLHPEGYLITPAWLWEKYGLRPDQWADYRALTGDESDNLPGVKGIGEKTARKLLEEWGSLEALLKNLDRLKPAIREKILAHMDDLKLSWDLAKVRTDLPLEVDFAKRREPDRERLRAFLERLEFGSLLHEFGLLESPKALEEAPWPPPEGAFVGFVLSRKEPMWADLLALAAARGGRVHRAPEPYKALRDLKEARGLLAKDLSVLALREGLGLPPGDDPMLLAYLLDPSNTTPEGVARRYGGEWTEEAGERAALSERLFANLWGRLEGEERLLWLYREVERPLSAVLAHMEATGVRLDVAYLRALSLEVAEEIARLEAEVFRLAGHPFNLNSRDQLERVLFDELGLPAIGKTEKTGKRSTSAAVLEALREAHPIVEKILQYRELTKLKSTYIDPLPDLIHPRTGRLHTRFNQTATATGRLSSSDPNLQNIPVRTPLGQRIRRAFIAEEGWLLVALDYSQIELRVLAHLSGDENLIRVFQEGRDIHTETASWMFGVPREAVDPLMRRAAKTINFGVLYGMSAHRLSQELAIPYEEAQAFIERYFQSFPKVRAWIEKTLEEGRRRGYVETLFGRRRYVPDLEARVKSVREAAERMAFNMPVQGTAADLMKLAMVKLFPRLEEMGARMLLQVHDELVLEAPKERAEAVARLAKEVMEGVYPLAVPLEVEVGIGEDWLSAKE

Question: “GCGTAACTAGACCATAAGCCGATAGCTTGAACCGGACCAGCAAGCTTAGAGATCACGGTATCCAGATTCGCTCATAGTACACAACTGCCTCCGGTTCAA / GCAGTTGTGTACTATGAGCGA [LTT1 template with DCP1_primer1]” was tested. Which activity (Volcano2G DNA polymerase) did it give?
Answer: Its activity is 10%.

Question: And the activity [1]?
Answer: Its activity is 0.1%.

Question: What about the activity [2] of the same sequence?
Answer: Its activity is 0.1%.
